# Measurements published in the nanobody polyreactivity screen of Harvey et al. (2022).
# Assay: yeast display, Sf9 membrane polyspecificity reagent, FACS + sequencing; frameworks hold sequencing errors
# Outline: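 Galactose-induced (36–48 hours) yeast carrying a synthetic nanobody display library were exposed to 10% biotinylated, detergent-solubilized Sf9 membrane reagent at 4 °C for 1 hour. FACS followed streptavidin microbead enrichment, using low and high (top ~1%) gates for expression (anti-HA) and reagent binding (streptavidin). Colony PCR, MiSeq 2 × 250 sequencing and CDR-length filtering followed. Labels for polyreactivity reflect the gate of origin.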
row,Sequence,polyreactivity (PSR sort gate)
1,QVQLVESGGGLVQAGGSLRLSCAASGRIFSGYAMGWYRKAPGKERELVAAINRGGDTNYADSVKGRFTISRDNAKNTVYLQMNSLKPEDTAVYYCAAQYSGRYRRVPKSYPDRGDYWGQGTQVTVSS,low polyreactivity
2,QVQLVESGGGLVQAGGSLRLSCAASGRIFSGYAMGWYRQAPGKERELVAAITSGGSTNYADSVKGRFTISRDNAKNTVYLQMNSLKPVDTAVYYCAKYYFQYKHDYWGQGTQVTVTS,low polyreactivity
3,QVQLVESGGGLVQAGGSLRLSCAASGRIFSGYAMGWYRQAPGKERELVAAITWNGVSTYYADSVKGRFTISRDNAKNTVYLQMNSLKPEDTAVYYCNAEVYSDPYNDHDYWGQGTQVTVSS,low polyreactivity
4,QVQLVESGGGLVQAGGSLRLSCAASGRIFSHTVMGWYRQAPGKEGELVADISSSGGSTYYADSVKWRFTISRDNAKNTVDFQKNSLKPEYTAVYYCAAAPWASGTDEYWGHGTQVTVSS,low polyreactivity
5,QVQLVESGGGLVQAGGSLRLSCAASGRIFSHYAMGWYRQAPGKERELVASITRGGTRTYADSVKGRFTISRDNAKNTVYLQMNSLKPEDSAVYYCAADGYAYYYEWSQGDLSYDHWGQVTQVTVSS,low polyreactivity
6,QVQLVESGGGLVQAGGSLRLSCAASGRIFSIYAMGWYRQAPGKERELVADITWTGGGTYYADSVKGRFTISRDNAKNTVYLQMNSLKPEDTAVYYCAADLYRKWWYDYWGQGTQVTVSS,high polyreactivity
7,QVQLVESGGGLVQAGGSLRLSCAASGRIFSIYAMGWYRQAPGKERELVASINSGDSTYYADSVKGRFTISRDNAKNTVYLQMNSLKPEDTAVYYCAATLVTVPLYRFDYWGQGTQVTVSS,low polyreactivity
8,QVQLVESGGGLVQAGGSLRLSCAASGRIFSIYGMGWYRQAPGKERELVAVISGSVGITYYADSVKGRFTISRDNAKHTVYLQMNSLKPEDTAVYYCNAKVRRRKYDYWGQGTQVTVSS,high polyreactivity
9,QVQLVESGGGLVQAGGSLRLSCAASGRIFSKYTMGWYRQAPGKERELVAAISGSGTSTYYADSVKGRFTISRDNAKNTVYLQMNSLKPEDTAVYYCNAVKSWGHPGRYYWGQGTQVTVSS,high polyreactivity
10,QVQLVESGGGLVQAGGSLRLSCAASGRIFSLNAMGWYRQAPGKERELVAGIRKRGGSTYYADSVKGRFTISRDNAKNTVYLQMNSLKPEDTAVYYCAADRFAFYGRYRGPYYYWGHGTQVTVSS,high polyreactivity
11,QVQLVESGGGLVQAGGSLRLSCAASGRIFSLNDMGWYRQAPGKERELVATIRGRGTSTYYADSVKGRFTISRDNAKNTVYLQMNSLKPEDTAVYYCAARGHGAYGYWGQGSQVTVSS,low polyreactivity
12,QVQLVESGGGLVQAGGSLRLSCAASGRIFSLNTMGWYRQAPGKERELVATITKRGGNTYYADSVKGRFTISRDNAKNTVYLQMNSLKPEDTAVYYCAVPRSITYRYGYWGQGTQVTVSS,high polyreactivity
13,QVQLVESGGGLVQAGGSLRLSCAASGRIFSMNAMGWYRQAPGKERELVAGIRKRGGSTYYADSVKGRFTISRDNAKNTVYLQMNSLKPEDTAVYFCAAQPALTYRFYYLGQGTQVTVSS,high polyreactivity
14,QVQLVESGGGLVQAGGSLRLSCAASGRIFSNNAMGWYRQAPGKERELVAAIDSSGDSTNYADSVKGRFTISRDNAKNTVYLQMNSLKPEDTAVYYCNARQSGRRVWQYLYGYWGQGTQVTVSS,high polyreactivity
15,QVQLVESGGGLVQAGGSLRLSCAASGRIFSNYAMGWYRPAPGKESELVAAISRGGGRTFYADSVTGRFTISRDNAKNTVYLQKNSLKPEDTAVYYCATRSYYVKGDYWGQATQVTVSS,high polyreactivity
16,QVQLVESGGGLVQAGGSLRLSCAASGRIFSPYAMGWYRQATGKERELVAAIDWDGGGTYYADSVKGRFTISRDNAKNTVYLQMNSLKPEDTAVYYCAAETDLANGTSPSDYWGQGTQVTVSS,low polyreactivity
17,QVQLVESGGGLVQAGGSLRLSCAASGRIFSRNAMGRYSQAPGKERELVAAIRWRSGSTYYADSVKGRFTISRDNAKNTVYLQMNSLNPEDTAVYYCAASGPGYSRYTQYDSWGQGTQVTESS,high polyreactivity
18,QVQLVESGGGLVQAGGSLRLSCAASGRIFSRNTMGWYRQATGKEREFVAAISQSGGRTYYADSVKGRFTISRDNAKNNVYLQMNSLKPEDTAVYYCAARSRGYDIRYGYWGQGTQVTVSS,high polyreactivity
19,QVQLVESGGGLVQAGGSLRLSCAASGRIFSRYALGWYSPEPGKERELVAAIRSNGGRTYYADSVKGRFTISRDNAKNTVYLQMNSLKPEDTAVYYCAAAGGGKVSYRDYDYWGQGTQVTVSS,high polyreactivity
20,QVQLVESGGGLVQAGGSLRLSCAASGRIFSRYAMGLYRQAPGKERELVAAITWRGGSTYYADSVKGRFTISRDNAKNTVYLEMNSLKPEDSAVYYCAKYGSGGRQLRSDSWVQGTQVTVSS,high polyreactivity
21,QVQLVESGGGLVQAGGSLRLSCAASGRIFSRYAMGRYRQAPGKERELVAAITQSGTSTYYADSVKGRFTISRDNAKNTVYLQMNSLKPEDTAVYYCNAYRQYRYDYWGQGTQVTVSS,low polyreactivity
22,QVQLVESGGGLVQAGGSLRLSCAASGRIFSRYAMGWYRQAPGKERELVATISSGGGTYYADSVKGRFTISRDNAKNTVYLQMNSLKPEDTAVYYCAVQVWYGRYYYWGQGTQVTVSS,high polyreactivity

row,Sequence,polyreactivity (PSR sort gate)
1,QVQLVESGGGLVQAGGSLRLSCAASGRIFSRYAMGWYRQAPGKERELVATITRRGGSTSYADSVKGRFTISRDNAKNTVYLQMNSLKPEDTAVYYCAAQSFYGIYYGQQDYDYWGQGTQVTVSS,high polyreactivity
2,QVQLVESGGGLVQAGGSLRLSCAASGRIFSRYTMGWYRQAPGKERELVAAISYSGGRTYYADSVKGRFTISRDNAKNTVYLQMYSLKPEDTAVYYCAAPRSVVGAYGFYYWGQGTQVTVSS,high polyreactivity
3,QVQLVESGGGLVQAGGSLRLSCAASGRIFSRYTMGWYRQAPGKERELVAGITRGGGSTYYADSVKGRFTISRDNAKNTVYLQMNSLKPEDTAVYYCAATFAYHDGDYWGQGTQVTVSS,low polyreactivity
4,QVQLVESGGGLVQAGGSLRLSCAASGRIFSSNAMGWYRQAPGKEREFVAAISWRTGSTYYADSVKGRFTISRDNAKNTVYLQMNSLKPEDTAVYYCAAVYWTFWGTIATRYDYWGQGTQVTVSS,high polyreactivity
5,QVQLVESGGGLVQAGGSLRLSCAASGRIFSSNAMGWYRQAPGKERELVAAITSGGSTYADSVKGRFTISRDNAKNTVYLQMNSLKPEDTAVYYCAKDGPGGGTRIYDYWGHGTQVTVSS,high polyreactivity
6,QVQLVESGGGLVQAGGSLRLSCAASGRIFSSYAMGWSRQAPGKERELVAAISSSGGNTYYADSVKGRFTISRDNAKNTVYLQMNSLKPEDTAVYYCNTRWVHRDWYDYWGQGTQVTVSS,high polyreactivity
7,QVQLVESGGGLVQAGGSLRLSCAASGRIFSSYAMGWYRQAPGKERELVAGITRGGSTYADSVKGRFTISRDNAKNTVYLQMNSLKPEDTAVYYCAADALIATPSWGKYNYWGQGTQVTVSS,high polyreactivity
8,QVQLVESGGGLVQAGGSLRLSCAASGRIFSSYAMGWYRQAPGKERELVAVISQRGGSTSYADSVKGRFTISRDNAKNTVYLQMNSLKPEDTAVYYCARRPGKGNNYWGQGTQVTVSS,high polyreactivity
9,QVQLVESGGGLVQAGGSLRLSCAASGRIFSSYTMGWYRQAPGKERELVAAISWRGGSTYYADSVKGRFTISRDNAKNTVYLQMNSLKPEDTAVYYCAADSRSDPGDYWGQGNQVTVSS,low polyreactivity
10,QVQLVESGGGLVQAGGSLRLSCAASGRIFSTNAMGWYRQAPGKERELVATIRTSGGSTYYADSVKGRFTISRDNAKNTVYLQMNSLKPEDTAVYYCAARRFLHYTTYYGTGRYDYWGQGTQVTVSS,low polyreactivity
11,QVQLVESGGGLVQAGGSLRLSCAASGRIFSTNAMGWYRQAPWKERELVASISKSGGSTYYADSVKGRFTISRDNAKNTVYLQMNSLKPEDTAVYYCAASSYSTSYIRGDYWGQGTQVTVSS,low polyreactivity
12,QVQLVESGGGLVQAGGSLRLSCAASGRIFSTYAMGWYRQAPGKERELVAAINSIGGRTYYADSVKGRFTISRDNAKNTVYLQMNSLKPEDTAVYYCAAGYRTRRGLGYYYWGQGTQVTVSS,high polyreactivity
13,QVQLVESGGGLVQAGGSLRLSCAASGRIFSTYTMGWYSQAPGKDRELVARSSWSAGRTYYADSVKGRFTISRDNAKNSVYLQMNSLKPEETAVYYCAADGYTQRGYDYWGQGTQVTVSS,high polyreactivity
14,QVQLVESGGGLVQAGGSLRLSCAASGRIFSYNAMGWYRQAPGKERELFAAISSDGSTYYADSVKGRFTISRDNAKNTVYLEMNSLKPEDTAVYYCAARQVVWFVYTTAQVGSYKVNYWGQGTQVNVSS,low polyreactivity
15,QVQLVESGGGLVQAGGSLRLSCAASGRIFSYNAMGWYRQAPGKERELVASISYSGTSTYYADSVKGRFTISRDNAKKTVYLQMNSLKPEDTAVYYCAALSRRRFGYWGQGTQVTVSS,high polyreactivity
16,QVQLVESGGGLVQAGGSLRLSCAASGRIFSYNTLMRWYRQAPGKERELVAAITFSSASTYYADSVKGRFTISRDNAKNTVYLQMNSLKPEDTAVYYCAAAIRSQSSKYYYWGQGTQVTVSS,low polyreactivity
17,QVQLVESGGGLVQAGGSLRLSCAASGRIFSYYAMGWYRQAPGKEREFVATITYAGGSTYYADSVKGRFTISRDNAKNTVYFQMNSLKPEDTAVYYCAARGYSYRGWRMDYWGQGTQVTVSS,high polyreactivity
18,QVQLVESGGGLVQAGGSLRLSCAASGRIFSYYAMGWYRQAPGKERELVAAINSDGSTDYADSVKGRFTISRDNAKNTVYLQMNSLKPEDTAVYYCAKVWSLGPTGFRAYVRVWYYYWGVGTQVTVSS,low polyreactivity
19,QVQLVESGGGLVQAGGSLRLSCAASGRIFSYYAMGWYRQAPGKERELVAAISWNGGSTYYADSVKGRFTISRDNAKNTVYLQMNSLKPEDTAVYYCIRLGYRTGYERDYWGQGTQVTVSS,high polyreactivity
20,QVQLVESGGGLVQAGGSLRLSCAASGRIFSYYAMGWYRQAPGKERELVAAISWSGGSTYYADSVKGRFTISRDNAKNTVYLQMNSLKPEDTAVYYCAAGVHWDRGDYWGQGTQVTVSS,low polyreactivity
21,QVQLVESGGGLVQAGGSLRLSCAASGRIFSYYAMGWYRQAPGKERELVAAITSGGRTNYADSVKGRFTISRDNAKNTVYLQMNSLNPEDTAVYYCAAIFGYGSTWCRWGKDDYWGQGTQVTVSS,high polyreactivity
